Experimental data: US20090041783A1 (MOCHIDA PHARMACEUTICAL, published 2009)
Blank lines part the entries; values can stand above or below the binder they belong to.

Key:
hGPVI-mL3-hFc = biological target: T1, hGPVI-mL3-hFc (human (loop 3 from mouse)); experiment: competition ELISA on hGPVI-hFc plate; soluble hGPVI-mL3-hFc as competitor
T1 construct: also called hGPVI-hFc-mL3
Method: (§1) To the plate, wherein hGPVI-hFc has been immobilized at 4 μg/mL, a mixture of peroxidase-labeled F1232-37-2 or cF1232-37-2 by the method described in EXAMPLE 14, and hGPVI-hFc, mGPVI-hFc, hGPVI-mL3-hFc, wherein these were prepared in EXAMPLE 7, or hGPVI-K59E-hFc (a fusion protein consisting of one amino acid mutated human GPVI extracellular region, wherein lysine at 59 of human GPVI is substituted for glutamic acid, and human Fc), which has been prepared by the same method as that of EXAMPLE 1 and diluted with 0.1% BSA/PBS was added, and the plate was incubated at 37° C. for one hour. After incubation, the mixture was developed using TMB solution, and absorbance at 450 nm was measured.

hGPVI-K59E-hFc = biological target: T2, hGPVI-K59E-hFc (human); experiment: competition ELISA on hGPVI-hFc plate; soluble hGPVI-K59E-hFc as competitor
T2 construct: Fusion of human GPVI extracellular region with lysine at 59 of human GPVI substituted for glutamic acid, and human Fc
Method: as §1

[1] = biological target: T3, human GPVI extracellular region-human Fc fusion protein (hGPVI-hFc) (human); experiment: competition ELISA on immobilised hGPVI-hFc: unlabelled antibody against labelled cF1232-37-2/COS
T3 construct: Expressed in COS-1, purified on Protein A; also called GPVI-HHH-hFc; hGPVIHHH-hFc
Method: as §1
To confirm the reactivity of cF1232-37-2/CHO, using binding ability to hGPVI-hFc as an index, the competitive test with cF1232-37-2 prepared by transient gene expression system with COS cells was performed. The measurement method was in accordance with the method described in 17-3 of EXAMPLE 17. Using hGPVI-hFc as an immobilized protein, a competitive activity to labeled cF1232-37-2/COS was confirmed when unlabeled cF1232-37-2/CHO or cF1232-37-2/COS was added at a variety of concentration. It was confirmed that the reactivity of cF1232-37-2/CHO is equivalent to that of cF1232-37-2/COS.

[2] = biological target: T3, human GPVI extracellular region-human …; experiment: ELISA on immobilised hGPVI-hFc (GPVI antigen binding assay of Example 31)
[3] = biological target: T3, human GPVI extracellular region-human …; experiment: ELISA on immobilised hGPVI-hFc, peroxidase-labelled anti-mouse immunoglobulin antibody
Method: Binding activity to the antigen was detected by ELISA. To each well of immunoplate immobilized with hGPVI-hFc (prepared by the method described in EXAMPLE 2 and the like), F1232-37-2 antibody and F1232-37-2 PEGylated antibody, wherein both antibodies had been adjusted to the same concentration, was added and the plate was incubated at 37° C. for one hour. The well was washed with saline containing 0.05% Tween20. Then 50 μL of peroxidase-labeled anti-mouse immunoglobulin antibody (DAKO, P260), which had been diluted by 1000-fold with 10% rabbit serum-containing D-PBS, was added to each well. After incubation at 37° C. for one hour, coloring reaction by the TMB substrate was done to measure an absorbance at 450 nm with plate spectro-photometer (Molecular Devices, Wako). As a result, it was confirmed that both F1232-37-2 antibody and PEGylated F1232-37-2 antibody have almost equivalent binding activity.

[4] = biological target: T3, human GPVI extracellular region-human …; experiment: SPR (BIACORE 3000), hGPVI-hFc on CM5 chip, 0-800 nM analyte, 1:1 binding fit
Method: (§2) Dissociation constant for F1232-37-2 (whole antibody) prepared in EXAMPLE 2, and F(ab′)2 and Fab prepared in 22-1 and 21-2 was measured with Protein Interaction Analyzer BIACORE 3000 (BIACORE). That is, to sensorchip CM5 (BIACORE) hGPVI-hFc prepared in EXAMPLE 1 was bound according to the manual. Then a series of dilution from 0 to 800 nM of each antibody was prepared with HBS-EP buffer (BIACORE) and analyzed with BIACORE 3000. After completion of antibody binding, chip was regenerated with glycine buffer (pH 1.5) (BIACORE). Regarding the results of whole antibody and F(ab′)₂, evaluation software Bivalent analyte (BIACORE) was used for analysis; 1:1 Binding for Fab analysis. Then the dissociation constant was calculated. As a result, dissociation constant of F1232-37-2 F(ab′)2 and Fab was about 0.7 and 0.6, respectively, when that of whole antibody defined as one.

[5] = biological target: T3, human GPVI extracellular region-human …; experiment: SPR (BIACORE 3000), hGPVI-hFc on CM5 chip, 0-800 nM analyte, bivalent analyte fit
Method: as §2

[6] = biological target: T3, human GPVI extracellular region-human …; experiment: SPR (BIACORE3000), GPVI-Fc on CM5 chip, antibody 1.25-40 nM as analyte, bivalent analyte fit
Method: (§3) Dissociation constant for the anti-GPVI monoclonal antibody prepared in EXAMPLE 2 was measured using protein interaction analyzer BIACORE3000 (BIACORE). That is, to sensor chip, CM5 chip (BIACORE), GPVI substitution mutant (hGPVIHHH-hFc and FFH-hFc) that is prepared in EXAMPLE 1 was linked according to the manual. Then each antibody was diluted with HBS-EP buffer solution (BIACORE) to prepare a series of diluted solution from 1.25 to 40 nM, and analyzed with BIACORE3000. Every each antibody bound chip, the chip was regenerated with glycine buffer solution at pH1.5. The obtained result was analyzed with Bivalent analyte, the evaluation software (BIACORE) to calculate dissociation constant. It was shown that each anti-GPVI monoclonal antibody has a sufficient affinity to GPVI-HHH-hFc.

[7] = biological target: T4, cynomolgus monkey D1D2-human D3 chimeric GPVI-human Fc fusion protein (GPVI-FFH-hFc) (cynomolgus monkey (D1, D2) and human …); experiment: as above
T4 construct: also called Monkey GPVI
Method: as §3

[8] = biological target: T3, human GPVI extracellular region-human …; experiment: blocking ELISA: binding of hGPVI-hFc to immobilised collagen in the presence of the antibody (panel Comparsion of mouse anti-GPVI monoclonal antibodies)
[9] = biological target: T3, human GPVI extracellular region-human …; experiment: competition ELISA on immobilised hGPVI-hFc: unlabelled antibody against the peroxidase-labelled mouse antibody of the panel titled F1232-10-2 competition assay (the text, paragraph 248, names F1232-10-1); x axis relative amount to labeled Ab (fold)
Method: Next, by using the peroxidase-labeled antibody, the competitive test for a variety of purified antibody was performed. That is, 25 μL of the above labeled antibody and 25 μL of each purified antibody were added to well of hGP-hFc-immobilized plate. After incubation at 37° C. for one hour, the well was washed five times with the saline containing 0.05% Tween20, and the reaction mixture was developed with TMB solution (BioFix). After incubation at room temperature for 10 minutes, the reaction was terminated with 0.5 M sulfuric acid solution and an absorbance at 450 nm was measured with the plate spectrophotometer (Multi-Scan JX, Dainippon Pharmaceutical).
To compare an antigen binding property of mouse/human chimeric antibody with that of the corresponding mouse monoclonal antibody, in the same method as that of EXAMPLE 14, peroxidase-labeled F1232-37-2, F1232-18-3, F1232-43-3 and F1232-10-1 were prepared. […] Further, an inhibiting activity of each antibody for binding of GPVI to collagen was measured according to the method described in EXAMPLE 2 or EXAMPLE 14. […]

T3 sequence (chain, as listed by the source limits assumed): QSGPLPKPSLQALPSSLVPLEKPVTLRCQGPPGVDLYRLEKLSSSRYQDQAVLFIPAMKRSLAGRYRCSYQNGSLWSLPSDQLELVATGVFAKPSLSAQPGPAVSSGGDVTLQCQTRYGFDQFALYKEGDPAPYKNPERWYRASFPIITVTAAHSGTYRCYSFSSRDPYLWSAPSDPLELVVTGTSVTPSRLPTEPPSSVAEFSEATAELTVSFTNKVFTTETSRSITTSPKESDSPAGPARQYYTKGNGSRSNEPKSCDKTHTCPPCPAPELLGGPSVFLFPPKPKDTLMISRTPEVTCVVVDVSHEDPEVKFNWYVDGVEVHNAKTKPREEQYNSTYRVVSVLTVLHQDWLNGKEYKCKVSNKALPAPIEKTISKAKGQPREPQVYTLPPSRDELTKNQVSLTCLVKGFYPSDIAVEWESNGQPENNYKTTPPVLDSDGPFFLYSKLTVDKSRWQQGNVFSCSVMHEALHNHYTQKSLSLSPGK
T1 sequence (chain, as listed by the source limits assumed): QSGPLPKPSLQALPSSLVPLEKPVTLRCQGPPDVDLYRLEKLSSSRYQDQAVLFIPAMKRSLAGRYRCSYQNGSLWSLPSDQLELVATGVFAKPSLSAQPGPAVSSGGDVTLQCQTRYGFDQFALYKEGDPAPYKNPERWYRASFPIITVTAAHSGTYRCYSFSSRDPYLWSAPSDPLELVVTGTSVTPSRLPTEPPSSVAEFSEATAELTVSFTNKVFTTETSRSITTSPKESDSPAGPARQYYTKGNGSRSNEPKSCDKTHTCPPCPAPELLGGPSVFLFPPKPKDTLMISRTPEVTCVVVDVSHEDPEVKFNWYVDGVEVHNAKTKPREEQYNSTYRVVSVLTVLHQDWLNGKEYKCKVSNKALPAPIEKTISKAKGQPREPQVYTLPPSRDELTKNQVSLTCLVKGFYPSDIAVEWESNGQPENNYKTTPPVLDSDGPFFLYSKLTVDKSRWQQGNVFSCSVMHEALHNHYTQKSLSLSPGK
T2 sequence (chain, as listed by the source K59E K59E limits assumed): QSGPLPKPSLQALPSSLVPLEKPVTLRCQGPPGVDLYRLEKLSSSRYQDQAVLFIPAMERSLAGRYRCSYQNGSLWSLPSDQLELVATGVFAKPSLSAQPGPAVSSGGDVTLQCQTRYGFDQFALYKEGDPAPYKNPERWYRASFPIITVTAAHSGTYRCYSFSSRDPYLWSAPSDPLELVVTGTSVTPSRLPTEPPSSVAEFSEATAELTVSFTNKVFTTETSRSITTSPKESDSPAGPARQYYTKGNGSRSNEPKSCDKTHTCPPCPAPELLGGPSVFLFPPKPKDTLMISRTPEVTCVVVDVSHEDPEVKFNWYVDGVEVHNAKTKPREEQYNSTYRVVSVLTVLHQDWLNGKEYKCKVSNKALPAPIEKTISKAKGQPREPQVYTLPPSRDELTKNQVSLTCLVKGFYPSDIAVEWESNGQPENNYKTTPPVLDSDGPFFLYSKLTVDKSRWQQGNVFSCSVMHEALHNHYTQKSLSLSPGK
T4 sequence (chain, as listed by the source mutant limits assumed): as the sequence (chain, as listed by the source K59E K59E limits assumed) above, with S2R, E59K, S61H, L78P, R166G, V181M, P442S counted along it

B1: cF1232-37-2 (mouse/human chimeric antibody of F1232-37-2) (antibody, human IgG4, V domains shown)
VH: VQLQQSGPELVRPGESVKISCKGSGYTFTDYAIHWVKLSHAKSLEWIGVISIYYDDTNYNQKFKGKATMTVDKSSSTAYLELARLTSEDSAIYYCARRRDSSGPYAMDYWGQGTSVTVSS
VL: DIVLTQSPASLAVSLGQRATISCRASESVDSYGNSFMHWYQQKPGQPPKLLIYRASNLESGIPARFSGSGSRTDFTLTINPVEADDVATYYCQQSNEDPYTFGGGTKLEIKR
notes: Mouse V regions of F1232-37-2 with human IgG4 (Cgamma4) and human kappa constant regions; plasmids pTK-2510 and pTK-2511; made in COS-1 (/COS) and in CHO DXB11 (/CHO); also called cF1232-37-2/COS; cF1232-37-2/CHO
- binding result (hGPVI-mL3-hFc): binds
- binding result (hGPVI-K59E-hFc): binds
- IC50 (read off the curve) [1]: ~1 µg/mL

B2: PEG-F1232-372Fab (Fab, V domains shown)
VH: B1 VH
VL: DIVLTQSPASLAVSLGQRATISCRASESVDSYGNSFMHWYQQKPGQPPKLLIYRASNLESGIPARFSGSGSRTDFTLTINPVEADDVATYYCQQSNEDPYTFGGGTKLEIK
modifications: linear 20 KD PEG with succinimide group; sites not given ; Linear 20 KD PEG with succinimide group coupled to the Fab; sites and number not given.
notes: also called PEGylated F1232-37-2 Fab antibody; PEGylated F1232-37-2Fab fragment; copies: 1 + 1
- EC50 (read off the curve) [2]: ~0.3 µg/mL

B3: PEGylated F1232-37-2 antibody (antibody, V domains shown)
VH: B1 VH
VL: B1 VL
modifications: linear PEG of 20 KD coupled through a succinimide group; sites not stated
notes: Whole mouse F1232-37-2 reacted with PEG at antibody:PEG 1:10 (molar) and purified on Q Sepharose HP; also called F1232-37-2 PEGylated antibody
- EC50 (read off the curve) [3]: ~0.02 µg/mL

B4: F1232-37-2 Fab (Fab, V domains shown)
VH: B1 VH
VL: B1 VL
notes: Fab made from mouse F1232-37-2 with papain; also called F1232-37-2 Fab antibody
- dissociation constant relative to that of the whole antibody (defined as one) [4]: ~0.6 fold of whole F1232-37-2
- EC50 (read off the curve) [2]: ~0.3 µg/mL

B5: F1232-37-2 F(ab')2 (other)
VH: B1 VH
VL: DIVLTQSPASLAVSLGQRATISCRASESVDSYGNSFMHWYQQKPGQPPKLLIYRASNLESGIPARFSGSGSRTDFTLTINPVEADDVATYYCQQSNEDPYTFGGGTKLEIKRADAA
notes: F(ab')2 fragment made from mouse F1232-37-2 with Lysyl Endopeptidase; also called mouse monoclonal antibody F1232-37-2 F(ab')2
- dissociation constant relative to that of the whole antibody (defined as one) [5]: ~0.7 fold of whole F1232-37-2

Results, then the binder that gave them:

- binding result (hGPVI-mL3-hFc): binds
- binding result (hGPVI-K59E-hFc): binds
- Kd [6]: 0.403 nM
- Kd [7]: 1 nM
- EC50 (read off the curve) [3]: ~0.02 µg/mL
B6: F1232-37-2 (antibody, V domains shown)
VH: B1 VH
VL: B1 VL
notes: Mouse hybridoma monoclonal antibody; also called F1232-37-2 antibody; F1232-37-2 whole antibody

- binding result [8]: binds
B7: F1232-10-1 (antibody, V domains shown)
VH: VTLKESGPGILQPSQTLSLTCSFSGFSLSTYGIGVGWIRQPSGKGLEWLAHIWWNDDKYYNTALKSRLTISKDTSNNQVFLKIASVDTADTATYYCARVYYYGSSFDYWGQGTTLTVSS
VL: DIQMTQSPASLSASVGETVTITCRASENIFSILAWYQQKQGKSPQLLVYAATNLADGVPSRFSGSGSGTQFSLKINSLQPEDFGSYYCQHFYGTPWTFGGGTKLEIKR
notes: Mouse hybridoma monoclonal antibody

- binding result [9]: binds
B8: cF1232-10-1 (antibody, human IgG4, V domains shown)
VH: B7 VH
VL: B7 VL
notes: Mouse/human chimeric antibody of F1232-10-1; human IgG4 and kappa constant regions; COS-1
